Like-named read-outs stand apart in the source and are kept apart here.
Legend:
Assay in all cases: cell-based or functional assay
[1] = target: adiponectin receptor 1 (human) (UniProt Q96A54)
[2] = target: adiponectin receptor 2 (human) (UniProt Q86V24)
[3] = target: adiponectin receptor 1 (human) (UniProt Q96A54); remark: listed apart in the source
[4] = target: adiponectin receptor 2 (human) (UniProt Q86V24); remark: listed apart in the source

Chain of adiponectin receptor 1 (human) (Q96A54 whole entry): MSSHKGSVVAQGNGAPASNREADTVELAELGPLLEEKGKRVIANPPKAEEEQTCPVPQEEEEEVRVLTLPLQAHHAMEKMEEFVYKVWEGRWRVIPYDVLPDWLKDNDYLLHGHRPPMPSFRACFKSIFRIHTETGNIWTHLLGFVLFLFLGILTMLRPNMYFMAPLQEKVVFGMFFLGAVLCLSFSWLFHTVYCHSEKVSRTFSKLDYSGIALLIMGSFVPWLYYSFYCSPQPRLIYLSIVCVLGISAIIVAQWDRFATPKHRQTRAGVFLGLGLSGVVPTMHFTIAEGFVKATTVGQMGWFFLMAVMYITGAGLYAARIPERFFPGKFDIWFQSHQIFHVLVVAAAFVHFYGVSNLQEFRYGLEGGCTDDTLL
Chain of adiponectin receptor 2 (human) (Q86V24 whole entry): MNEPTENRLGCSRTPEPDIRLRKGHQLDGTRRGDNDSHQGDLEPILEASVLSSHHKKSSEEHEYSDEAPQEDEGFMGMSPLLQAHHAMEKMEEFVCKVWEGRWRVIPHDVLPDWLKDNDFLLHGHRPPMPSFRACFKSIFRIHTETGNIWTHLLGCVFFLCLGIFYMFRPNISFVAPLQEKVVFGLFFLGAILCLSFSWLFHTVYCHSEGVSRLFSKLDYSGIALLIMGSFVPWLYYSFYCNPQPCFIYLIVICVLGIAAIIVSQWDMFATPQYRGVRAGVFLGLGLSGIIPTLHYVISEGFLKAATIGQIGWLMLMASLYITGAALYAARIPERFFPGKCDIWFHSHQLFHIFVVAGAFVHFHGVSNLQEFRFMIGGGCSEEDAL

EC50 of inhibition of PBL transendothelial migration (static adhesion assay) [1]: 40 nM | EC50 of inhibition of PBL transendothelial migration (static adhesion assay) [2]: 40 nM | EC50 of inhibition of PBL transendothelial migration (static adhesion assay) [3]: 0.94 µg/mL | EC50 of inhibition of PBL transendothelial migration (static adhesion assay) [4]: 0.94 µg/mL
Substance: adiponectin (from UniProt Q15848 19-244) (ligand)

Reference: patent publication US20170151309A1
